Values joined by “and” are separate entries in the source; they are usually repeats but may differ in a detail not shown here. Identical values can stand only once.

Data set [1] addresses 3xFLAG-BIRC6 (full-length, wild type) (human) (UniProt Q9NR09). As to the kind of experiment: FRET or BRET.
Data set [2] concerns the target FLAG-BIRC6 (full-length baculoviral IAP repeat-containing protein 6) (human) (UniProt Q9NR09). Kind of data set: cryo-EM structure. Particulars: remark: other sources report otherwise.
Data set [3] concerns the target 3xFLAG-BIRC6 (full-length, wild type) (human, UniProt Q9NR09 1-4857). Kind of data set: FRET or BRET.
Data set [4] concerns the target 3xFLAG-BIRC6 BIRmut (C328S/C331S) (human, UniProt Q9NR09 1-4857, C328S | C331S). As to the kind of experiment: FRET or BRET.
Data set [5] concerns the target 3xFLAG-BIRC6 ΔHelix (aa1616-1666 removed) (human, UniProt Q9NR09 1-4857, ΔHelix, aa1616-1666 removed). Kind of data set: FRET or BRET.
Data set [6] has as its target FLAG-BIRC6 (full-length baculoviral IAP repeat-containing protein 6) (human, UniProt Q9NR09 1-4857). Kind of data set: cryo-EM structure.
The data set “cryo-EM structure” concerns the molecule itself. Kind of data set: cryo-EM structure.

For the molecule “BODIPY-labeled caspase-7 (from UniProt P55210 1-303) (enzyme)”, the Kd in data set [1] worked out at 4 nM.

The molecule “FLAG-BIRC6 (full-length baculoviral IAP repeat-containing protein 6), Q9NR09 1-4857” gave a stoichiometry N in data set [2] of 2.

B1: BODIPY-labeled Smac-Cys (natural protein)
chain: AVPIAQKSEPHSLSSEALMRRAVSLVTDSTSTFLSQTTYALIEAITEYTKAVYTLTSLYRQYTSLLGKMNSEEEDEVWQVIIGARAEMTSKHQEYLKLETTWMTAVGLSEMAAEAAYQTGADQASITARNHIQLVKLQVEEVHQLSRKAETKLAEAQIEELRQKTQEEGEERAESEQEAYLREDC
modifications: BODIPY FL Maleimide on the introduced cysteine (degree of labeling 0.48)
In the case of B1, the Kd in data set [3] is < 2 nM and 2 nM; in data set [4] it was 26 ± 2 nM; in data set [5], 30 ± 5 nM. Besides, the binding result in data set [3] is recorded as “binds”.

B2: Smac-His9 (mature Smac without the N-terminal mitochondrial targeting sequence) (natural protein)
chain: AVPIAQKSEPHSLSSEALMRRAVSLVTDSTSTFLSQTTYALIEAITEYTKAVYTLTSLYRQYTSLLGKMNSEEEDEVWQVIIGARAEMTSKHQEYLKLETTWMTAVGLSEMAAEAAYQTGADQASITARNHIQLVKLQVEEVHQLSRKAETKLAEAQIEELRQKTQEEGEERAESEQEAYLRED
Turning to B2, in data set [6], the binding result was “binds”. For the same molecule, the “stoichiometry N” value in the data set “cryo-EM structure” is 2.

The values above are taken from article doi:10.1101/2022.08.19.504532 (bioRxiv, 2022).
